From patent US20190040477

Experiments:
[1] = tested on: GST-mRtACPI (S1062A mutant of the first ACP domain of Rhodosporidium toruloides Fas2, residues 1022-1184, as GST fusion protein)
[2] = tested on: GST-mRtACPII (S1253A mutant of the second ACP domain of Rhodosporidium toruloides Fas2, residues 1213-1375, as GST fusion protein)
[3] = tested on: GST-wRtACPI (wild type first ACP domain of Rhodosporidium toruloides Fas2, residues 1022-1184, as GST fusion protein)
[4] = tested on: GST-wRtACPII (wild type second ACP domain of Rhodosporidium toruloides Fas2, residues 1213-1375, as GST fusion protein)

## GST-RtPPT (phosphopantetheinyl transferase domain of Rhodosporidium toruloides Fas2, residues 2809-2928, as GST fusion protein)
[1]
  ΔM (Da): change in molecular weight of the ACP after treatment by PPT, MALDI-TOF mass spectrometry (in vitro phosphopantetheinylation): 2 Da
[2]
  ΔM (Da): change in molecular weight of the ACP after treatment by PPT, MALDI-TOF mass spectrometry (in vitro phosphopantetheinylation): 46 Da
[3]
  ΔM (Da): gain in molecular weight of the ACP after treatment by PPT, MALDI-TOF mass spectrometry (in vitro phosphopantetheinylation): 332 Da
[4]
  ΔM (Da): gain in molecular weight of the ACP after treatment by PPT, MALDI-TOF mass spectrometry (in vitro phosphopantetheinylation): 322 Da
